Assay results reported in US20260109745A1.

Legend:
[1] = target: MUC5AC (NPC-1 antigen, tumor variant) as expressed on human pancreatic tumor cell lines (human) (UniProt P98088); experiment: flow cytometry on CFPAC-1 pancreatic tumor cells
[2] = target: MUC5AC (NPC-1 antigen, tumor variant) as expressed by human colorectal tumor cell lines (human) (UniProt P98088); experiment: flow cytometry on LS174T colorectal tumor cells
[3] = target: MUC5AC (NPC-1 antigen, tumor variant) as expressed by human colorectal tumor cell lines (human) (UniProt P98088); experiment: flow cytometry on Colo-205 colorectal tumor cells
[4] = target: MUC5AC (NPC-1 antigen, tumor variant) as expressed by human colorectal tumor cell lines (human) (UniProt P98088); experiment: flow cytometry on SW480 colorectal tumor cells
[5] = target: MUC5AC (NPC-1 antigen, tumor variant) as expressed on human pancreatic tumor cell lines (human) (UniProt P98088); experiment: immunofluorescence on fixed, permeabilized CFPAC-1 cells, 2 ug/ml

MUC5AC (NPC-1 antigen, tumor variant) as expressed by human colorectal tumor cell lines (human), sequence (P98088 other isoform, or with tags, fused parts or gaps mutant limits assumed): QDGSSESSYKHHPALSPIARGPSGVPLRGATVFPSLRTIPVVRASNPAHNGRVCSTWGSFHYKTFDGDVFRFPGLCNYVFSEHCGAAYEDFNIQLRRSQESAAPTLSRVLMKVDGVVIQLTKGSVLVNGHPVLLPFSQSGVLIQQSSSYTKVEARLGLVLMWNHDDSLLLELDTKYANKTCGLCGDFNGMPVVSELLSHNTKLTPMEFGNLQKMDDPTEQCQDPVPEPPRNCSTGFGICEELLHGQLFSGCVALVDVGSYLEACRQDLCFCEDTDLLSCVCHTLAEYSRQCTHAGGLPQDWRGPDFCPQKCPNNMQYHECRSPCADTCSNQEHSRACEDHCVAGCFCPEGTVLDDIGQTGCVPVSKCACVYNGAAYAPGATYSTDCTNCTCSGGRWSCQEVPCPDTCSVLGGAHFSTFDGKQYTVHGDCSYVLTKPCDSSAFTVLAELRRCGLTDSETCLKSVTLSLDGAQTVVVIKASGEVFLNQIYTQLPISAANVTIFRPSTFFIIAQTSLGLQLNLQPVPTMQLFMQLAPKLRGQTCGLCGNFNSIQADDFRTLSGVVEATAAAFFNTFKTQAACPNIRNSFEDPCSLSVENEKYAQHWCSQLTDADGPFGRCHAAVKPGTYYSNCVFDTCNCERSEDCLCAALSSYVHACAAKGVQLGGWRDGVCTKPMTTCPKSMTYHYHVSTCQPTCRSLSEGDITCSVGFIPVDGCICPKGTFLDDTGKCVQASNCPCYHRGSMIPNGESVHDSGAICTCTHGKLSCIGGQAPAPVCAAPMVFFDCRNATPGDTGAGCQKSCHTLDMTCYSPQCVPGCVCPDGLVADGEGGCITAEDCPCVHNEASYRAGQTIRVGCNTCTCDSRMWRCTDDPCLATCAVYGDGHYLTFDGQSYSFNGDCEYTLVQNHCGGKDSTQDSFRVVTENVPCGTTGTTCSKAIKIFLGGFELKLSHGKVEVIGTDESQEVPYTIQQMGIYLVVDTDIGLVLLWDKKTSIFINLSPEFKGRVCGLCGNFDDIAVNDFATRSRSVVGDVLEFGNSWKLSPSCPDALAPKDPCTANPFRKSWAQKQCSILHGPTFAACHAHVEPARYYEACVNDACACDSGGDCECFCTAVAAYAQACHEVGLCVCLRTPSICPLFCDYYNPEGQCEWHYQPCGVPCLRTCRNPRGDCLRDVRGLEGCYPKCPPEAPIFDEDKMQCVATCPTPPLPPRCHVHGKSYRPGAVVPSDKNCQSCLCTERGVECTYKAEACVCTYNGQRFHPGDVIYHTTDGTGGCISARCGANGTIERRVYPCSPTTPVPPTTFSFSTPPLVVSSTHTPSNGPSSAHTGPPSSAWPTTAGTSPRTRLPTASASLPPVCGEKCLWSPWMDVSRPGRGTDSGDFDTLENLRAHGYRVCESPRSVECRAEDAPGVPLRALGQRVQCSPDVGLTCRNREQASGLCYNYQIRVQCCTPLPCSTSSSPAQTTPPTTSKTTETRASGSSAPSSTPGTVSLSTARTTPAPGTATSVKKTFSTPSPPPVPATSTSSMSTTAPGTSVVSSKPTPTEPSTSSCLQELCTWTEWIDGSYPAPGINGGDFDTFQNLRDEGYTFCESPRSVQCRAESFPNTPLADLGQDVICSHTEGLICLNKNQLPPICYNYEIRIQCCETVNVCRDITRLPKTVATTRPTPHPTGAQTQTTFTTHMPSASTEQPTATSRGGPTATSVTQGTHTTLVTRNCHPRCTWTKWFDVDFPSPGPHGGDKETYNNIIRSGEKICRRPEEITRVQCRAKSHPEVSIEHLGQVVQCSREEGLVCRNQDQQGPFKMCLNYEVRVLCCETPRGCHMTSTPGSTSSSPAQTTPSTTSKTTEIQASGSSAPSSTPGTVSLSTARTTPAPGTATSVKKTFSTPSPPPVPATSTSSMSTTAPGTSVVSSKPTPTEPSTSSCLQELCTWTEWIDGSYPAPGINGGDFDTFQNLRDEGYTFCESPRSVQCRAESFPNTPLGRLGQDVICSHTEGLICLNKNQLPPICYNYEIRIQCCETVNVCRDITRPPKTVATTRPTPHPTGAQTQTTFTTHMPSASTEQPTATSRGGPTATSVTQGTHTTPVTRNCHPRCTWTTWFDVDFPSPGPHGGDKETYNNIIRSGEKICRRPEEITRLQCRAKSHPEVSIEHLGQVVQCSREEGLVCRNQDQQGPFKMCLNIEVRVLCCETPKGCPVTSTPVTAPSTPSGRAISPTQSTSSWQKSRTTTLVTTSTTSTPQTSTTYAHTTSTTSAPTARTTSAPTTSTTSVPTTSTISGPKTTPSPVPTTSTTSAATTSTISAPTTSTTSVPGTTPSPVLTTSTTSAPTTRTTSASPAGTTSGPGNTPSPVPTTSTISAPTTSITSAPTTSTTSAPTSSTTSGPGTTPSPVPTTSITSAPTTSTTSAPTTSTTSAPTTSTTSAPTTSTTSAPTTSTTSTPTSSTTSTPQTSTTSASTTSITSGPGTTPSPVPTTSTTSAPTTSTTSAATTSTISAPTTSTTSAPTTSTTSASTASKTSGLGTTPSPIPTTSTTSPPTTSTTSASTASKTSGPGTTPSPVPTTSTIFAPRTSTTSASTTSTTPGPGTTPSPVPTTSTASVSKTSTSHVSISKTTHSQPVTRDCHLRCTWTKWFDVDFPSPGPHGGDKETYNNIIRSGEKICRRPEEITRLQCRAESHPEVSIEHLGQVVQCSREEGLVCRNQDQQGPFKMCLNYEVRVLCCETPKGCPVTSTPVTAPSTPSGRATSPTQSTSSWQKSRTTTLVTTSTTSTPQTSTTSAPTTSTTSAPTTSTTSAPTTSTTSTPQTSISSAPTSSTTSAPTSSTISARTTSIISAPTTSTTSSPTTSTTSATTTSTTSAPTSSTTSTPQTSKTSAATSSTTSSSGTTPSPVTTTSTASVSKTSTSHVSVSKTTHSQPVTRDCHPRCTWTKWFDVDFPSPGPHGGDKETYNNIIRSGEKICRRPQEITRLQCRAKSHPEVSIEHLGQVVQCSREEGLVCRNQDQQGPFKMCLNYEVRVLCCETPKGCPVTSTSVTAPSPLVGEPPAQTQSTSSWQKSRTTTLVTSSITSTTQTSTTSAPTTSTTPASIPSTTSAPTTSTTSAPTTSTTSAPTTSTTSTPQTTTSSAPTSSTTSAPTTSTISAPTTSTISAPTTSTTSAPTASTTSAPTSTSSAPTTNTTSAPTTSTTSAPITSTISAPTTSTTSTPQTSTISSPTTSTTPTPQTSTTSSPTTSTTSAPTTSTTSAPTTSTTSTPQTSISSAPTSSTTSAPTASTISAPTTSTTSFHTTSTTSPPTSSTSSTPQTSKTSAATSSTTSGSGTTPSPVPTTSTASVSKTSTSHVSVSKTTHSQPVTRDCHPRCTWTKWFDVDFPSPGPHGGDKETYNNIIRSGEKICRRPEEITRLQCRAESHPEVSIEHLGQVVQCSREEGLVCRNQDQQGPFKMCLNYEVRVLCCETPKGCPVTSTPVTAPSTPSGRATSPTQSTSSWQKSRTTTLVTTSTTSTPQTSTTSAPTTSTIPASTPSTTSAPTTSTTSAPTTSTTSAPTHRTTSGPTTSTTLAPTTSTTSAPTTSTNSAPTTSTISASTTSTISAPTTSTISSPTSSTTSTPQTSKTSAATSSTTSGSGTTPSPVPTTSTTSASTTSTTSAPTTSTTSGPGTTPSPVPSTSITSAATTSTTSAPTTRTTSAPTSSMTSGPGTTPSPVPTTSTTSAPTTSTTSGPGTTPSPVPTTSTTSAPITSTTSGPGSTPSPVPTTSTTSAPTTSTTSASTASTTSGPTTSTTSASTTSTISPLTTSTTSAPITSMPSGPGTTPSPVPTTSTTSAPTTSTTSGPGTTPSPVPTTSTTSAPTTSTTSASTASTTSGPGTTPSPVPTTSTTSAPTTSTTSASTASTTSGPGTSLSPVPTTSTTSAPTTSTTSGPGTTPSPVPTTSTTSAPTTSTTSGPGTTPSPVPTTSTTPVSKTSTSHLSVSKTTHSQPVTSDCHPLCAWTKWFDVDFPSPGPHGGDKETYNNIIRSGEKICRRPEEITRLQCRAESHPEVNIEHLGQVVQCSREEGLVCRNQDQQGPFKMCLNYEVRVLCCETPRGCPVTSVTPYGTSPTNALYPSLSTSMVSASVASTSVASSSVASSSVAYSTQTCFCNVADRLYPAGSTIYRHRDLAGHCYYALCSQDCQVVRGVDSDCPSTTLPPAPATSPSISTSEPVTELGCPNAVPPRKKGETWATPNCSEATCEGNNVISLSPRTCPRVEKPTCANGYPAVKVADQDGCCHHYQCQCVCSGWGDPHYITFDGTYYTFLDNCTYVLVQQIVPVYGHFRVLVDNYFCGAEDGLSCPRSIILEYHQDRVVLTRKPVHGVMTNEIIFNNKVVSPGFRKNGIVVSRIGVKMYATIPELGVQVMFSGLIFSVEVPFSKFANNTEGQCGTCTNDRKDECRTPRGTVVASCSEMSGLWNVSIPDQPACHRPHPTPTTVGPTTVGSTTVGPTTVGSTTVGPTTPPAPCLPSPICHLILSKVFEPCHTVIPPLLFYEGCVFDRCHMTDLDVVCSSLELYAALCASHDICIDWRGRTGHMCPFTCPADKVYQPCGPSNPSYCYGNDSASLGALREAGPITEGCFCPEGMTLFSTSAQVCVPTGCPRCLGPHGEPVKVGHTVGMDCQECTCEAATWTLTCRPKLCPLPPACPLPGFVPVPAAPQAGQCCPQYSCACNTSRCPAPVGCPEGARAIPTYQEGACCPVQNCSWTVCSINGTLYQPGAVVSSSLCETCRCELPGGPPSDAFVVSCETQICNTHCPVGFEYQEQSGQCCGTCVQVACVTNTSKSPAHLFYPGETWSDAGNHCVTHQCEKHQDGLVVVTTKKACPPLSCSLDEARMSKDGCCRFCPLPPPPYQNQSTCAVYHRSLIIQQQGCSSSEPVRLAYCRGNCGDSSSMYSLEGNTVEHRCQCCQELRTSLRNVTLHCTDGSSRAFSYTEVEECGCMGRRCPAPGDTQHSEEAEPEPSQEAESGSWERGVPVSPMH
MUC5AC (NPC-1 antigen, tumor variant) as expressed on human pancreatic tumor cell lines (human), sequence (P98088 other isoform, or with tags, fused parts or gaps mutant limits assumed): as above

| Substance | % Cells Stained [1] [%] | % Cells Stained [2] [%] | % Cells Stained [3] [%] | % Cells Stained [4] [%] | % of cells stained [5] [%] |
| --- | --- | --- | --- | --- | --- |
| Isotype control antibody | 1.79 | 3.85 | 2.33 | 3.38 |  |
| Polyclonal rabbit anti-MUC5AC antibody (H-160) (Santa Cruz Biotechnology Inc.) |  |  |  |  | 100 |
